T1: Macaca fascicularis (mf) RET.mmh (Macaca fascicularis)
T1 construct: also called monkey RET
T1 chain: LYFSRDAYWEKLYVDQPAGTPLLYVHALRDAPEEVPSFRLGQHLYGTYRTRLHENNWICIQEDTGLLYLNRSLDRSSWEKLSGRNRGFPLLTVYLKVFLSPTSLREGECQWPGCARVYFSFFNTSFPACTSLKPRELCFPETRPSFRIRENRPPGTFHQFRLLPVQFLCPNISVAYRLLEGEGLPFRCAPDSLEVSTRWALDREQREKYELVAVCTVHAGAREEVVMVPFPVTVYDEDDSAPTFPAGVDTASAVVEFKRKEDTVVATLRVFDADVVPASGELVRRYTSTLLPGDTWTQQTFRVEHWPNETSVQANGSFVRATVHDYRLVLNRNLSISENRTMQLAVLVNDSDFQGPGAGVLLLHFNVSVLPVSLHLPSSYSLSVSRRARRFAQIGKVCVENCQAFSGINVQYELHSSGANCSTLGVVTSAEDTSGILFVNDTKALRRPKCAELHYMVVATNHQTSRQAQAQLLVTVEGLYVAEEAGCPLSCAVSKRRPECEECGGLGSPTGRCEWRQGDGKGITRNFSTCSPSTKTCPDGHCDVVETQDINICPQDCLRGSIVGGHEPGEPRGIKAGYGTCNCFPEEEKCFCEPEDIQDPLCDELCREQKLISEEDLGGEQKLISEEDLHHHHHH

B1: H4H8044P (antibody, human IgG4, V domains shown)
VH: QVQLVESGGGVVQPGRSLRLSCAASGFTFSGSGMHWVRQAPGKGLEWVAVIWEDGSNKYYADSVRGRFTISRDNFKNTLYLQMNSLRAEDTAVYYCARQTMVRGVIRFYYYYYGMDVWGQGTTVTVSS
VL: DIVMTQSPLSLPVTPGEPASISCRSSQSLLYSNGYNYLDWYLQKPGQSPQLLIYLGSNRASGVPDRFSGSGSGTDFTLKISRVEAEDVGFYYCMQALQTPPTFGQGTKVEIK
notes: human IgG4 Fc (H4H prefix)
B2: H4H8079P (antibody, human IgG4, V domains shown)
VH: EVQLVESGGGLVKPGGSLRLSCAASGFTFSNAWMSWVRQAPGKGLEWVGRIKSKTDGGTSEYAAPVKGRFTISRDDSKNTLFLQMNSLKSEDAAVYYCTTGRSWSDYFDFWGQGTLVTVSS
VL: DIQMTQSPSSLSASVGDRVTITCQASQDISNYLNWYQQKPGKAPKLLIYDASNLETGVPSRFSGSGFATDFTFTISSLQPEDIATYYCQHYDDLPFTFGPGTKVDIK
notes: human IgG4 Fc (H4H prefix)
B3: H4H8045P (antibody, human IgG4, V domains shown)
VH: EVQLVESGGALVQPGGSLRLSCAASGFTFSNYAMTWVRQAPGMGLEWVSGISSSGASTFYADSVKGRFTISRDNSKNTLYLQMNSLRAEDTAVYYCAKEDYWGWFDYWGQGTLVTVSS
VL: DIQLTQSPSFLSASVGDRVTITCWASQDVSSYLAWYQQEPGKAPKVLIYDASTLQSGVPSRFSGSGSGTEFTLTISSLQPEDFAPYYCQQLNSYPYTFGQGTKLEIK
notes: human IgG4 Fc (H4H prefix)
B4: H4H8046P (antibody, human IgG4, V domains shown)
VH: QVQLVQSRDEVKKPGASVKVSCKASGYTFTTYGISWVRQAPGQGLEWMGWINTYNGDTNYAQKVQDRVIMTTDTSTSTAYMELRSLRSDDTAVYFCAGARPLGGRRAFDIWGQGTMVTVSS
VL: DIQMTQSPSSLSASVGDRVTITCRASQGISHYLAWYQQKPGKVPKLLIYAASTLQSGVPSRFSGSGSGTDFTLTISSLQPEDVATYYCQKYNSVPWTFGQGTKVEIK
notes: human IgG4 Fc (H4H prefix)

Target: T2, hRET.mmh (human, UniProt P07949 29-635, biotinylated in the ELISA of Example 4 (biot-hRET.mmh); not in the SPR of Example 3)
T2 construct: also called biot-hRET.mmh; soluble monomeric human RET
Assay: SPR Biacore T200, mAb capture, 25 C
Experimental: (§1) Binding affinities and kinetic constants of human anti-RET antibodies were determined by surface plasmon resonance (Biacore T200) at […] (Tables 2-3). […] Binding equilibrium dissociation constants (KD) and dissociative half-lives (t_{1/2}) were calculated from the kinetic rate constants as: KD [M]=kd/kₐ; and t_{1/2}(min)=(ln2/(60*kd). Calculations were performed using BiacoreT200 evaluation software v1.0.

With B1 as the binder, how does the Kd read?
The Kd was 5.49 nM.

What about the koff of the same binder?
Its koff is 0.000488 s⁻¹.

What about the kon of the same binder?
The kon was 88800 M⁻¹ s⁻¹.

And the t½?
Its t½ is 24 min.

What does the source list for B2?
Kd: 2.68 nM; koff: 0.000384 s⁻¹; kon: 143000 M⁻¹ s⁻¹; t½: 30 min

For B3, which Kd is on record?
The Kd was 0.883 nM.

And the koff?
The koff was 0.000246 s⁻¹.

What about the kon of the same binder?
Its kon is 279000 M⁻¹ s⁻¹.

What about the t½ of the same binder?
The t½ was 47 min.

B4 was tested. Which Kd did it give?
Its Kd is 0.984 nM.

And the koff?
The koff was 0.000301 s⁻¹.

What about the kon of the same binder?
The kon was 306000 M⁻¹ s⁻¹.

And the t½?
Its t½ is 38 min.

Target: T1, Macaca fascicularis (mf) RET.mmh
Assay: SPR Biacore T200, mAb capture, 25 C
Experimental: as §1

How did the Kd turn out when B1 was run?
Its Kd is 14.7 nM.

And the koff?
The koff was 0.00135 s⁻¹.

And the kon?
Its kon is 92000 M⁻¹ s⁻¹.

What about the t½ of the same binder?
Its t½ is 9 min.

Which results are given for B2?
Kd: 3.73 nM; koff: 0.000435 s⁻¹; kon: 117000 M⁻¹ s⁻¹; t½: 27 min

For B3, which Kd is on record?
Its Kd is 14.6 nM.

And the koff?
Its koff is 0.0028 s⁻¹.

What about the kon of the same binder?
Its kon is 192000 M⁻¹ s⁻¹.

What about the t½ of the same binder?
Its t½ is 4 min.

B4 was tested. Which Kd did it give?
The Kd was 1.13 nM.

And the koff?
Its koff is 0.000315 s⁻¹.

And the kon?
Its kon is 278000 M⁻¹ s⁻¹.

What about the t½ of the same binder?
The t½ was 37 min.

Target: T3, hRET.mFc (human)
T3 construct: also called dimeric human RET
Assay: SPR Biacore T200, mAb capture, 25 C
Experimental: as §1

Which Kd does the source give for B1 here?
The Kd was 1.97 nM.

And the koff?
Its koff is 0.000211 s⁻¹.

And the kon?
Its kon is 107000 M⁻¹ s⁻¹.

And the t½?
The t½ was 55 min.

How did the Kd turn out when B2 was run?
Its Kd is 0.72 nM.

And the koff?
The koff was 0.000151 s⁻¹.

And the kon?
The kon was 209000 M⁻¹ s⁻¹.

What about the t½ of the same binder?
The t½ was 77 min.

What does the source list for B3?
Kd: 0.229 nM; koff: 8.71e-05 s⁻¹; kon: 381000 M⁻¹ s⁻¹; t½: 133 min

B4 was tested. Which Kd did it give?
The Kd was 0.645 nM.

And the koff?
The koff was 0.000181 s⁻¹.

And the kon?
Its kon is 280000 M⁻¹ s⁻¹.

What about the t½ of the same binder?
The t½ was 64 min.

Target: T2, hRET.mmh
Assay: SPR Biacore T200, mAb capture, 37 C
Experimental: as §1

What does the source list for B1?
Kd: 18.6 nM; koff: 0.00281 s⁻¹; kon: 151000 M⁻¹ s⁻¹; t½: 4 min

With B2 as the binder, how does the Kd read?
The Kd was 9.1 nM.

What about the koff of the same binder?
Its koff is 0.00189 s⁻¹.

What about the kon of the same binder?
The kon was 207000 M⁻¹ s⁻¹.

What about the t½ of the same binder?
Its t½ is 6 min.

B3 was tested. Which Kd did it give?
Its Kd is 3.22 nM.

And the koff?
Its koff is 0.00127 s⁻¹.

And the kon?
The kon was 395000 M⁻¹ s⁻¹.

And the t½?
Its t½ is 9 min.

For B4, which Kd is on record?
The Kd was 1.81 nM.

What about the koff of the same binder?
The koff was 0.0013 s⁻¹.

And the kon?
Its kon is 718000 M⁻¹ s⁻¹.

What about the t½ of the same binder?
Its t½ is 9 min.

Target: T1, Macaca fascicularis (mf) RET.mmh
Assay: SPR Biacore T200, mAb capture, 37 C
Experimental: as §1

With B1 as the binder, how does the Kd read?
Its Kd is 48.5 nM.

And the koff?
Its koff is 0.00521 s⁻¹.

And the kon?
Its kon is 108000 M⁻¹ s⁻¹.

What about the t½ of the same binder?
The t½ was 2 min.

How did the Kd turn out when B2 was run?
The Kd was 13.3 nM.

What about the koff of the same binder?
Its koff is 0.00205 s⁻¹.

And the kon?
Its kon is 154000 M⁻¹ s⁻¹.

What about the t½ of the same binder?
Its t½ is 6 min.

With B3 as the binder, how does the Kd read?
Its Kd is 50.3 nM.

What about the koff of the same binder?
The koff was 0.0131 s⁻¹.

What about the kon of the same binder?
The kon was 261000 M⁻¹ s⁻¹.

And the t½?
The t½ was 1 min.

How did the Kd turn out when B4 was run?
The Kd was 1.92 nM.

What about the koff of the same binder?
Its koff is 0.00135 s⁻¹.

And the kon?
The kon was 704000 M⁻¹ s⁻¹.

And the t½?
Its t½ is 9 min.

Target: T3, hRET.mFc
Assay: SPR Biacore T200, mAb capture, 37 C
Experimental: as §1

What does the source list for B1?
Kd: 6.21 nM; koff: 0.00085 s⁻¹; kon: 137000 M⁻¹ s⁻¹; t½: 14 min

Which Kd does the source give for B2 here?
The Kd was 2 nM.

And the koff?
The koff was 0.000523 s⁻¹.

And the kon?
Its kon is 261000 M⁻¹ s⁻¹.

What about the t½ of the same binder?
The t½ was 22 min.

With B3 as the binder, how does the Kd read?
The Kd was 0.834 nM.

And the koff?
The koff was 0.000382 s⁻¹.

And the kon?
The kon was 459000 M⁻¹ s⁻¹.

And the t½?
Its t½ is 30 min.

Which results are given for B4?
Kd: 2.05 nM; koff: 0.000694 s⁻¹; kon: 338000 M⁻¹ s⁻¹; t½: 17 min

Target: T2, hRET.mmh
Assay: competition sandwich ELISA: 1 nM biot-hRET.mmh + antibody, plate-coated GDNF/GFRα1 co-complex
Experimental: The ability of anti-RET antibodies to block the binding of human RET to pre-complexed plate bound GDNF:GFRα1 was assessed using a competition sandwich ELISA.
Antibody-RET mixtures were incubated for 1 hour at RT and then transferred to microtiter plates previously coated with the hGDNF/hGFRα1 co-complex. Binding was allowed to proceed for 1 hr at RT followed by extensive washing. […] Plates were read at 450 nm and data analysis used a sigmoidal dose-response model within Prism™ software.
The absorbance values of the wells containing the highest concentration for each antibody were used to determine the blocking percent at maximum concentration antibody tested.

B1 was tested. Which “% Max Blocking” value did it give?
The value was 91%.

What about the IC50 of the same binder?
The IC50 was 5.2 nM.

B2 was tested. Which “% Max Blocking” value did it give?
Its value is 93%.

What about the IC50 of the same binder?
The IC50 was < 0.25 nM.

Which “% Max Blocking” value does the source give for B3 here?
Its value is 75%.

What about the IC50 of the same binder?
The IC50 was 0.34 nM.

For B4, which “% Max Blocking” value is on record?
Its value is 95%.

And the IC50?
The IC50 was < 0.25 nM.
